# Reference: paper PMC3601010 (BMC Biochemistry, 2013)
# Ends that are not written are not given here.
# Assays:
# α-thrombin [1] = biological target: T1, α-thrombin (UniProt P00734 364-622); assay: cell-based or functional assay
# α-thrombin [2] = biological target: T1, α-thrombin; assay: SPR; competition: BIAcore X, 25°C; biotinylated HCII 1-75 on streptavidin-coated chip; peptides combined with 250 nM thrombin immediately before flowing over the chip; Ki from IC50 and the KD of 340 nM; conditions: both partners purified
# α-thrombin [3] = biological target: T1, α-thrombin; assay: ELISA; competition: HCII 1-75 immobilised on microtiter wells; competitor peptides added with 5 nM α-thrombin; ratio of absorbance with and without competitor; IC50 by linear regression of log-transformed plots; conditions: both partners purified
binder,measurement,setting,value
"GEEDDDYLDLEKIFSEDDDYID (not fully specified (N-terminus); ends and bridges not checked; also: nonapeptide N-terminal tag, unmodified amino terminus)","fold reduction of the apparent second-order rate constant of inhibition of 14 nM thrombin by 140 nM plasma-derived HCII with 55 μg/mL standard heparin, 250 μM peptide (Figure 5A)",α-thrombin [1],1.6 fold
same,"fold reduction of the apparent second-order rate constant of inhibition of thrombin by plasma-derived HCII with 1.4 μM dermatan sulfate, 250 μM peptide (Figure 5B)",α-thrombin [1],1.6 fold
same,Ki,α-thrombin [2],8.5 µM
same,Ki of equimolar HCII 54-75 and HCII 1-53,α-thrombin [2],13 µM
same,IC50,α-thrombin [3],110 µM
